{
  "source": "patent US20170210813A1",
  "about": "(Regeneron, published 2017)",
  "binders": {"B1": {"name": "H4H3099S (antibody, human IgG4, V domains shown)", "VH": "QITLKESGPTLVKPTQTLTLTCTFSGFSLTTTGVGVGWIRQPPGKALEWLALIYWNDLKRYSPSLKNRLTITKDTSRHQVVLTMTNMDPMDTATYYCAHRPLYYGSGSGWFDPWGPGTTVTVSS", "VL": "not shown", "notes": "human IgG4 Fc (H4H prefix)"}, "B2": {"name": "H4H3305N (antibody, human IgG4, V domains shown)", "VH": "QLQLQESGPGLVKPSETLSLTCIVSGGSISSSSYYWGWIRQPPGKGLEWIGSLYYSGITFYNPSLKSRVTISVDTSKNQFSLTLTSVTAADTAVFYCARHRVMASSPFDHWGQGTLVTVSS", "VL": "not shown", "notes": "human IgG4 Fc (H4H prefix)"}, "B3": {"name": "H4H3094P (antibody, human IgG4, V domains shown)", "VH": "EVQLVESGGGLVQPGGSLRLSCAASGFTFSSYWMSWVRQAPGKGLEWVANMNQDGSETHYVDSVKGRLSISRDNAKKSLFLHMNSLRAEDTAVYFCARDLVPPRQDDYYYYFGMDVWGHGTTVTVSS", "VL": "DIQMTQSPSTLSASVGDRVTITCRASQSISDWLAWYQQKPGKAPKLLIFKASTLESGVPSRFSGSGSGTEFTLTISSLQPDDFATYYCQQYNSYSRTFGQGTKVEIK", "notes": "also called H4H3394P"}, "B4": {"name": "H4H3374N (antibody, human IgG4, V domains shown)", "VH": "QLQLQESGPGLVKPSETLSLTCTVSGGSITSSSYYWGWIRQPPGKGLEWIGSIYYRGSTNYNPSLKSRVTISVDSSKNQFYLKVSSVTAVDTAVYYCARQNGAARPSWFDPWGQGTLVTVSS", "VL": "EIVLTQSPDTISLSPGERATLSCRASQSISSIYLAWYQQKPGQAPRLLIYGASSRVTGIPDRFSVSGSGTDFTLTISRLEPEDFAVYYCQHYGISPFTFGPGTKVDIR", "notes": "human IgG4 Fc (H4H prefix)"}},
  "data": [
    {"target": "T1, full length human PDGFR-beta on HEK293 cells (human, UniProt P09619 33-1106)", "assay": "cell-based or functional assay", "units": {"Percent Internalization (Relative to Control I)": "%"}, "values": [
      {"binder": "B1", "Percent Internalization (Relative to Control I)": 88},
      {"binder": "B2", "Percent Internalization (Relative to Control I)": 79},
      {"binder": "B3", "Percent Internalization (Relative to Control I)": 77},
      {"binder": "B4", "Percent Internalization (Relative to Control I)": 81}
    ]},
    {"target": "T1, full length human PDGFR-beta on HEK293 …", "assay": "cell-based or functional assay", "remark": "another data set of the same source", "units": {"IC50, blocking PDGF-BB (250 pM) activation, SRE-luciferase": "M", "IC50, blocking PDGF-DD (400 pM) activation, SRE-luciferase": "M"}, "values": [
      {"binder": "B1", "IC50, blocking PDGF-BB (250 pM) activation, SRE-luciferase": "2.1e-10", "IC50, blocking PDGF-DD (400 pM) activation, SRE-luciferase": "1.9e-10"},
      {"binder": "B2", "IC50, blocking PDGF-BB (250 pM) activation, SRE-luciferase": "5e-10", "IC50, blocking PDGF-DD (400 pM) activation, SRE-luciferase": "4.8e-10"},
      {"binder": "B3", "IC50, blocking PDGF-BB (250 pM) activation, SRE-luciferase": "4e-10", "IC50, blocking PDGF-DD (400 pM) activation, SRE-luciferase": "3.9e-10"},
      {"binder": "B4", "IC50, blocking PDGF-BB (250 pM) activation, SRE-luciferase": "1.3e-10", "IC50, blocking PDGF-DD (400 pM) activation, SRE-luciferase": "1.5e-10"}
    ]},
    {"target": "T2, PDGFR-beta extracellular domain construct D1-D2 (human)", "T2 construct": "also called D1-2", "T2 chain": "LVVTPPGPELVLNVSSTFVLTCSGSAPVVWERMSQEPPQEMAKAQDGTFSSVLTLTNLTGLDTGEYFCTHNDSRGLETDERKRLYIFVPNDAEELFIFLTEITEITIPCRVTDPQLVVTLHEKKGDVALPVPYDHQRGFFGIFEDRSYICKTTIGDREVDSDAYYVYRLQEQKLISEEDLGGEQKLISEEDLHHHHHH", "assay": "SPR, mAb captured, construct at 50nM", "method": "(§1) Four different anti-PDGFR-beta antibodies were tested for binding to the various constructs by surface plasmon resonance (Biacore). Briefly, 150-200 RU's of anti-PDGFR beta antibody was captured via an anti-human Fc CM5 chip. Next, the individual domain constructs, or full-length PDGFR beta, was applied over the antibody-bound surface at a concentration of 50nM. The ability of the various antibodies to bind to the various domain constructs was measured. (−)=No binding observed; (+)=Binding observed; ND=Not determined.", "values": [
      {"binder": "B3", "binding result": "binds"},
      {"binder": "B4", "binding result": "binds"}
    ]},
    {"target": "T3, PDGFR-beta extracellular domain construct D1-D3 (human)", "T3 construct": "also called D1-3", "T3 chain": "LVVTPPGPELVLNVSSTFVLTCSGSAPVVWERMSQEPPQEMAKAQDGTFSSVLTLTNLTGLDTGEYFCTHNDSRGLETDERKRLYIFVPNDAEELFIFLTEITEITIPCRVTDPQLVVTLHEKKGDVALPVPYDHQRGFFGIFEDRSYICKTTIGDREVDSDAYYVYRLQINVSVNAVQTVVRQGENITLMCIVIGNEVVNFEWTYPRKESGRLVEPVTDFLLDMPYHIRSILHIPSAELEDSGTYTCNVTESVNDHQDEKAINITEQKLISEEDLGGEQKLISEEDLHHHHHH", "assay": "SPR, mAb captured, construct at 50nM", "method": "as §1", "values": [
      {"binder": "B3", "binding result": "binds"},
      {"binder": "B4", "binding result": "binds"}
    ]},
    {"target": "T4, PDGFR-beta extracellular domain construct D1-D4 (human)", "T4 construct": "also called D1-4", "T4 chain": "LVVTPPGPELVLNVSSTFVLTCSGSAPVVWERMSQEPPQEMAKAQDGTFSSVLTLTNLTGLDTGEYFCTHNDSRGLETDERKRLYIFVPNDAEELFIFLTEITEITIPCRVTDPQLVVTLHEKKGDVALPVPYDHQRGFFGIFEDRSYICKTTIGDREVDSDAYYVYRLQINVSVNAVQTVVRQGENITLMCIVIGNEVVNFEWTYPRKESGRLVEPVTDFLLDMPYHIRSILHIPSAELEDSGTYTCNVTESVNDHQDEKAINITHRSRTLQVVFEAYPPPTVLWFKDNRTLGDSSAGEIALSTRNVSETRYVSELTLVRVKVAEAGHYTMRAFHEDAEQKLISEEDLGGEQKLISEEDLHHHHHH", "assay": "SPR, mAb captured, construct at 50nM", "method": "as §1", "values": [
      {"binder": "B3", "binding result": "binds"},
      {"binder": "B4", "binding result": "binds"}
    ]},
    {"target": "T5, hPDGFRb.mmh (human, UniProt P09619 33-531)", "T5 construct": "Soluble monomeric construct; also called soluble human PDGFR-beta.mmh", "assay": "Octet BLI cross-competition, 25 C; hPDGFRb.mmh on anti-Penta-His tips pre-saturated with mAb-1 H4H3305N (row 8)", "method": "(§2) A cross-competition assay was conducted to assess the ability of select antibodies to compete with one another for binding to human PDGFR-beta. […] Each PDGFR-beta.mmh-coated sensor tip was saturated for 5 min with a first anti-PDGFR-beta antibody (Mab #1; 50 μg/mL). Next, each sensor tip was saturated with a solution of a second anti-PDGFR-beta antibody (Mab #2). The real time response of Mab #2 binding to PDGR-beta.mmh pre-complexed with Mab #1 was then monitored. All assays were performed at 25° C. with a flow rate of 1000 rpm on an Octet RED384 biosensor in Octet HBST buffer according to manufacturer's instructions (ForteBio Corp., Menlo Park, Calif.). Results are illustrated in FIG. 2.", "units": {"Response of mAb-2 Binding to hPDGFRβ.mmh Pre-Complexed with mAb-1 (nm)": "nm"}, "values": [
      {"binder": "B3", "Response of mAb-2 Binding to hPDGFRβ.mmh Pre-Complexed with mAb-1 (nm)": 0.25},
      {"binder": "B4", "Response of mAb-2 Binding to hPDGFRβ.mmh Pre-Complexed with mAb-1 (nm)": 0.27}
    ]},
    {"target": "T5, hPDGFRb.mmh", "assay": "Octet BLI cross-competition, 25 C; hPDGFRb.mmh on anti-Penta-His tips pre-saturated with mAb-1 H4H3094P (row 5)", "method": "as §2", "units": {"Response of mAb-2 Binding to hPDGFRβ.mmh Pre-Complexed with mAb-1 (nm)": "nm"}, "values": [
      {"binder": "B1", "Response of mAb-2 Binding to hPDGFRβ.mmh Pre-Complexed with mAb-1 (nm)": 0.35},
      {"binder": "B2", "Response of mAb-2 Binding to hPDGFRβ.mmh Pre-Complexed with mAb-1 (nm)": 0.27},
      {"binder": "B4", "Response of mAb-2 Binding to hPDGFRβ.mmh Pre-Complexed with mAb-1 (nm)": 0}
    ]},
    {"target": "T5, hPDGFRb.mmh", "assay": "SPR, mAb captured, 37 C", "method": "(§3) Antibodies, expressed as either mouse Fc (prefix H1M; H2M) or human Fc (prefix H4H), were captured on their respective anti-Fc sensor surfaces (Mab capture format). […] Kinetic association (kₐ) and dissociation (kd) rate constants were determined by processing and fitting the data to a 1:1 binding model using Scrubber 2.0 curve fitting software.", "units": {"Kd": "nM", "koff": "s⁻¹", "kon": "M⁻¹ s⁻¹", "t1/2": "min"}, "values": [
      {"binder": "B1", "Kd": 2.39, "koff": 0.000639, "kon": 267000, "t1/2": 18},
      {"binder": "B2", "Kd": 1.93, "koff": 0.000355, "kon": 184000, "t1/2": 33},
      {"binder": "B3", "Kd": 6.58, "koff": 0.00147, "kon": 223000, "t1/2": 8},
      {"binder": "B4", "Kd": 1.84, "koff": 0.00126, "kon": 685000, "t1/2": 9}
    ]},
    {"target": "T6, human PDGFRb.hFc (human)", "T6 construct": "Soluble dimeric construct with human Fc; also called hPDGFRb.hFc", "assay": "SPR, mAb captured, 37 C", "method": "as §3", "units": {"Kd": "nM", "koff": "s⁻¹", "kon": "M⁻¹ s⁻¹", "t1/2": "min"}, "values": [
      {"binder": "B1", "Kd": 0.193, "koff": 0.000105, "kon": 540000, "t1/2": 110},
      {"binder": "B2", "Kd": 0.197, "koff": "4.85e-05", "kon": 247000, "t1/2": 238},
      {"binder": "B3", "Kd": 0.877, "koff": 0.000248, "kon": 283000, "t1/2": 47},
      {"binder": "B4", "Kd": 0.178, "koff": 0.000291, "kon": "1.63e+06", "t1/2": 40}
    ]},
    {"target": "T7, Macaca fascicularis PDGFRb.mmh (Macaca fascicularis)", "T7 construct": "Soluble monomeric construct; also called mfPDGFRb.mmh", "T7 chain": "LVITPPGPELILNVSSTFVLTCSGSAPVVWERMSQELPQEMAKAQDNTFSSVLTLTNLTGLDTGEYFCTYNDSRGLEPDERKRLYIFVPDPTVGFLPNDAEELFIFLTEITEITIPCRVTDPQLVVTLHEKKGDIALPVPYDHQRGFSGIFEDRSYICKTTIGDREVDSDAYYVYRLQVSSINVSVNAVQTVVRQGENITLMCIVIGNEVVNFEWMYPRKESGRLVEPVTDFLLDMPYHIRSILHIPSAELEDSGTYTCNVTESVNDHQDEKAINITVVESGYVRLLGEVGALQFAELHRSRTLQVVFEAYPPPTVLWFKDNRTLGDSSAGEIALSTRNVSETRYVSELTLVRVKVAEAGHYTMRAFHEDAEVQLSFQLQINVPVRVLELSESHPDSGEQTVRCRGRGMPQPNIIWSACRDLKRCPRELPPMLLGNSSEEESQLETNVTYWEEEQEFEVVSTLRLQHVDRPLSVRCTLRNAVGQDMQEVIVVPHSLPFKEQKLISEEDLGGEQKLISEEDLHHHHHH", "assay": "SPR, mAb captured, 37 C", "method": "as §3", "units": {"Kd": "nM", "koff": "s⁻¹", "kon": "M⁻¹ s⁻¹", "t1/2": "min"}, "values": [
      {"binder": "B1", "Kd": 2.17, "koff": 0.000652, "kon": 300000, "t1/2": 18},
      {"binder": "B2", "Kd": 2.04, "koff": 0.00039, "kon": 191000, "t1/2": 30},
      {"binder": "B3", "Kd": 6.69, "koff": 0.0017, "kon": 253000, "t1/2": 7},
      {"binder": "B4", "Kd": 2.63, "koff": 0.00177, "kon": 670000, "t1/2": 7}
    ]}
  ]
}
